These results are taken from paper PMC7198388, “Radiohybrid Ligands: A Novel Tracer Concept Exemplified by ^18F- or ^68Ga-Labeled rhPSMA Inhibitors” (Journal of Nuclear Medicine, 2020).

The test system of data set [1] is LNCaP cells. The following applies: 1 h, 37°C, % of (125I-I-BA)KuE, 18F reference ligands, mean ± SD, n = 3; cited from earlier work. From the text:
page 20: 8. Supplemental Data 1 Supplemental Table 1.

For data set [2], the system named is LNCaP tumor-bearing male CB-17 SCID mice. The following applies: 1 h p.i., mean ± SD, n = 4, cited from earlier work. The procedure: page 21: 9. Supplemental Data 2 Supplemental Table 2. Biodistribution of 68Ga-19F-rhPSMA-7 to 10, 18F-rhPSMA-7 and the reference ligands 18F-DCFPyL and 18F-PSMA-1007 at 1 h p.i. in LNCaP tumor-bearing SCID mice (n=3 for 68Ga-19F-rhPSMA-7 to 9, n=3 for 18F-rhPSMA-7, n=4 for 68Ga-19F-rhPSMA-10, 18F-DCFPyL and 18F-PSMA- 1007). Data for reference ligands were taken from a previously published study by our group (3). Values are expressed as a percentage of injected dose per gram (%ID/g), mean ± standard deviation. 18 18 68Ga-natF- 68Ga-natF- 68Ga-natF- 68Ga-natF- 18F-rhPSMA-7 Organ F-DCFPyL F-PSMA- ...

The next data set concerns the target T1, human serum albumin (Homo sapiens, UniProt P02768).
T1 construct: purchased Daicel H13H-2433
The following applies: affinity HPLC, Chiralpak HSA column; 19F reference ligands; cited from earlier work. The procedure:
Binding to HSA was assessed by means of a recently described HPLC method (Fig. 3D) ([34]). […] Supplemental Data 1 Supplemental Table 1.

Data set [3] can be described thus: Lipophilicity, n-octanol/PBS partition coefficient. The following applies: pH 7.4. The data set is classed as physicochemical. The method, then:
Approximately 1 MBq of the labeled tracer was dissolved in 1 mL of a 1:1 mixture (v/v) of PBS (pH 7.4) and n-octanol in a reaction vial (n = 6). After vigorous mixing of the suspension for 3 min at r.t., the vial was centrifuged at 15,000g for 3 min (Biofuge 15, Heraus Sepatech), and 100 μL aliquots of both layers were measured in a γ-counter.

For data set [4], the system named is LNCaP cells. Briefly: Internalization into LNCaP cells, normalized to (125I-I-BA)KuE. The data set is classed as cell-based, human. The following applies: LNCaP cells 1.25 x 10^5/well, 1 h, 37°C, ligand 0.5 nM/well; % of specific internalization of (125I-I-BA)KuE; 68Ga-19F or 18F free-chelator form; mean ± SD, n = 3. The method, then:
Internalization studies were carried out according to a previously published procedure (1). Briefly, LNCaP cells were harvested 24 ± 2 hours before the experiment and seeded in poly -L-lysine coated 24-well plates […]
After removal of the culture medium, the cells were washed once with 500 µL DMEM -F12 (5% BSA) and left to equilibrate for at least 15 min at 37 °C in 200 µL DMEM-F12 (5% BSA). Each well was treated with either 25 µL of either DMEM-F12 (5% BSA, control) or 25 µL of a 100 µM PMPA (2-(Phosphonomethyl)-pentandioic acid, Tocris Bioscience, Bristol, UK) solution in PBS, for blockade. Next, 25 µL of the radioactive-labelled PSMA inhibitor (5.0 nM in PBS) was added and the cells were incubat ed at 37 °C for 60 min. The experiment was terminated by placing the 24 -well plate on ice for 3 min and consecutive removal of the medium. Each well was carefully washed with 250 µL of ice-cold HBSS. Both fractions from the first steps, representing the amount of free radioligand, were combined. Removal of surface bound activity was accomplished by incubation of the cells with 250 µL of ice-cold PMPA (10 µM in PBS) solution for 5 min […]
and rinsed again with another 250 µL of ice-cold PBS. The internalized activity was determined by incubation of the cells in 250 µL 1 M aqueous NaOH for at least 10 min. The obtained fractions were combined with those of the subsequent wash step with 250 µL 1 M aqueous NaOH. Each experiment (control and blockade) was performed in triplicate. Free, surface bound and internalized activity was quantified in a γ-counter. All internalization studies were accompanied by external reference studies, using […]
Data were corrected for non-specific

A short description of data set [5]: Biodistribution in LNCaP tumor-bearing CB-17 SCID mice. The following applies: male, mouse, in vivo, iv, 0.2 nmol, total radioactivity, Biodistribution. From the text: Mice were used for experiments when tumors had grown to a diameter of 5–10 mm (3–6 wk after inoculation).
Selected organs were removed, weighed, and measured in a γ-counter.

The target in another data set is T2, PSMA (Homo sapiens, UniProt Q04609).
T2 construct: PSMA-positive LNCaP cells (300265; Cell Lines Service) were cultivated; host or cells: LNCaP human prostate carcinoma cells
T2 sequence (Q04609 whole entry): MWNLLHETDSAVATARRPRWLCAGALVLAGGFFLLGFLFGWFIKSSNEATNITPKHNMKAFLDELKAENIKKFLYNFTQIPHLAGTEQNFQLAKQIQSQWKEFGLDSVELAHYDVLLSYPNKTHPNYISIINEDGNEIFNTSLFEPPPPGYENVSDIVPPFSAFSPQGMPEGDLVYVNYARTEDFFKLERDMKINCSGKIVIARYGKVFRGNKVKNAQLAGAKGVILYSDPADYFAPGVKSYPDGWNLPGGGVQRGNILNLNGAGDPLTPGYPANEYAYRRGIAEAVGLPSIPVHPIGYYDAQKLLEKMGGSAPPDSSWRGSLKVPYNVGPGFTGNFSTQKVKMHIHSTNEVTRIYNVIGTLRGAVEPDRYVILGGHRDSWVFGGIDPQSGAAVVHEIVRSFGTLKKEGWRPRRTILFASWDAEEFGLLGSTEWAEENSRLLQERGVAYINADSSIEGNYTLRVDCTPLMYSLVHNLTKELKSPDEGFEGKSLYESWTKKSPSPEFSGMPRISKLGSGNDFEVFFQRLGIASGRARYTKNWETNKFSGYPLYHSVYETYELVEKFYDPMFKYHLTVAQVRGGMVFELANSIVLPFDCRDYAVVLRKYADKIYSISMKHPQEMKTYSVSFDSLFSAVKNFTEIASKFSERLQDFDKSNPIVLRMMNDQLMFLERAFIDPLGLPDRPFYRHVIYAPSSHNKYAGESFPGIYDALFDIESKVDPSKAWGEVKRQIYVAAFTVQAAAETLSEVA
The experiment in a line: Competitive binding (IC50) on LNCaP cells with (125I-I-BA)KuE as radioligand. The following applies: LNCaP cells 1.5 x 10^5/well, 1 h, 4°C, (125I-I-BA)KuE 0.2 nM/well, HBSS 1% BSA; natGa-19F or 19F free-chelator form; mean ± SD, n = 3. The procedure:
Data were corrected for nonspecific binding and normalized to the specific-internalization observed for the radioiodinated reference compound (n = 3). […]
with water (10 mL). The purified product was eluted with 50% aqueous ethanol (2 mL), phosphate buffered saline (PBS, 1 mL) and again water (1 mL). After removing ethanol in vacuo, purity of the radiolabelled compounds was determined by radio-HPLC and radio-TLC (ITLC-SG chromatography paper, mobile phase: 0.1 M trisodium citrate and Silica gel 60 RP-18 F254s, mobile phase: 3:2 mixture (v/v) of MeCN in H2O supplemented with 10% of 2 M NaOAc solution and 1% of TFA).
6. Human Serum Albumin (HSA) Binding
HSA binding of the PSMA-addressing ligands was determined according to a previously published procedure via HPLC (7). A Chiralpak HSA column (50 x 3 mm, 5 μm, H13H-2433, Daicel, Tokyo, Japan) […]
literature, in the range of 13 to 99% (7,8). All substances, including the examined PSMA ligands, were […]
final concentration of 0.5 mg/mL.
(Northampton, United States).
Affinity determinations (IC50)
The PSMA affinity (IC50) determinations and synthesis of the radioiodinated reference ligand (((S)-1- […]
described previously (1). Briefly, the respective ligand was diluted (serial dilution 10-4 to 10-10) in Hank’s balanced salt solution (HBSS, Biochrom). […]
(1% BSA). […] Quantification of all collected fractions was accomplished in a γ - counter. […]

SMILES strings stand for the structures. Read-outs that look alike come from different tables or passages of the source.

T1 sequence (P02768 25-609): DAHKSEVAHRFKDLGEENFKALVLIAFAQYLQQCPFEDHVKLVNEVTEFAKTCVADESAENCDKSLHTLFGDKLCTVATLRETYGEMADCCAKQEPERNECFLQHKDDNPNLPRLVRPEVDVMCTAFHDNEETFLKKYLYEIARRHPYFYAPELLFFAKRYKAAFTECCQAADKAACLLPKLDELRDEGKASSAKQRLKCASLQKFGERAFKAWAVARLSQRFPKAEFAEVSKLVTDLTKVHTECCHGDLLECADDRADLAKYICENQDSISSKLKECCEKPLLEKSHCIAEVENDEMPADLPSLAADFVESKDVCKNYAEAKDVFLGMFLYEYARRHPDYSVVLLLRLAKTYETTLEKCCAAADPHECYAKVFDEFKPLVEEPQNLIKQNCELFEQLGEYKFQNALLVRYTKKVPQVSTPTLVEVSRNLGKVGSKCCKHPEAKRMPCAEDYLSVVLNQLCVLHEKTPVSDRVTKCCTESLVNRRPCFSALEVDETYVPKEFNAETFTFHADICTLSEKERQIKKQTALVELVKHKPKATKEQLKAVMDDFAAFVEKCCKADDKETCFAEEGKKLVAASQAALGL

For the compound `O=C(O)CCC(NC(=O)NC(CCCCNC(=O)c1ccc([18F])nc1)C(=O)O)C(=O)O` (centres unmarked) [19/18F-DCFPyL, 2-(3-{1-Carboxy-5-[(6-[^18F]fluoro-pyridine-3-carbonyl)-amino]-pentyl}-ureido)-pen tanedioic acid], the Internalization in the data set with LNCaP cells [1] is reported as 118 ± 4 % of reference. Also, in data set [2], the “Biodistribution, Adrenals” value is 5.0 ± 4.0 %ID/g; the “Biodistribution, Blood” value was 0.34 ± 0.30 %ID/g; the “Biodistribution, Bone” value is reported as 0.12 ± 0.02 %ID/g; the “Biodistribution, Heart” value is recorded as 0.25 ± 0.09 %ID/g. In addition, in data set [2], the “Biodistribution, Intestine” value is reported as 0.14 ± 0.02 %ID/g; the “Biodistribution, Kidneys” value was 152.4 ± 15.3 %ID/g; the “Biodistribution, Liver” value was 1.7 ± 0.2 %ID/g; the “Biodistribution, Lung” value was 0.46 ± 0.05 %ID/g. In data set [2], the “Biodistribution, Muscle” value is listed as 0.11 ± 0.02 %ID/g; the “Biodistribution, Pancreas” value was 0.20 ± 0.10 %ID/g; the “Biodistribution, Spleen” value is given as 9.6 ± 4.4 %ID/g; the “Biodistribution, Stomach” value was 0.20 ± 0.03 %ID/g. Also, the “Biodistribution, Tumor” value in data set [2] (LNCaP tumor) is reported as 7.3 ± 1.5 %ID/g. Also, the HSA-binding on human serum albumin is 14%.
What is called tissue uptake is the percentage of the injected dose found per gram of tissue. Take `CC(C)(C)[Si](F)(c1ccc(C(=O)NC[C@@H](NC(=O)CCC(C(=O)O)N2CCN(CC(=O)O)CCN(CC(=O)O)CCN(CC(=O)O)CC2)C(=O)N[C@H](CCCCNC(=O)CCC(=O)NCCC[C@@H](NC(=O)CC[C@H](NC(=O)N[C@@H](CCC(=O)O)C(=O)O)C(=O)O)C(=O)O)C(=O)O)cc1)C(C)(C)C` (some centres unmarked) [68/natGa-19/18F-rhPSMA-7, metal not drawn]: the “Lipophilicity log PO/PBS” value in data set [3] is on record as “- 3.2 ± 0.05”. For the same compound, the Internalization with LNCaP cells [4] is listed as 126 ± 13 % of reference. Besides, the tissue uptake at 1 h in data set [5] (Adrenals) was 6.7 ± 2.2 %ID/g; in data set [5] (Blood), 1.9 ± 0.1 %ID/g; in data set [5] (Bone) it was 0.52 ± 0.11 %ID/g; in data set [5] (Heart) it was 1.2 ± 0.3 %ID/g; in data set [5] (Intestine), 0.43 ± 0.07 %ID/g; in data set [5] (Kidneys) it was 34.1 ± 6.6 %ID/g. For the same compound, the tissue uptake at 1 h in data set [5] (Liver) amounted to 0.77 ± 0.1 %ID/g; in data set [5] (Lung), 1.7 ± 0.2 %ID/g; in data set [5] (Muscle), 0.42 ± 0.22 %ID/g; in data set [5] (Pancreas) it was 0.71 ± 0.11 %ID/g; in data set [5] (Spleen), 13.8 ± 5 %ID/g; in data set [5] (Stomach), 0.51 ± 0.07 %ID/g. Further, the tissue uptake at 1 h in data set [5] (Tumor) was found to be 8.6 ± 0.2 %ID/g.
What is called IC50 is the point on the concentration scale where inhibition reaches its midpoint. Lower therefore signals greater potency. In the case of `CC(C)(C)[Si](F)(c1ccc(C(=O)NC[C@@H](NC(=O)CN2CCN(CC(=O)O)CCN(CC(=O)O)CCN(CC(=O)O)CC2)C(=O)N[C@H](CCCCNC(=O)CCC(=O)NCCC[C@@H](NC(=O)CC[C@H](NC(=O)N[C@@H](CCC(=O)O)C(=O)O)C(=O)O)C(=O)O)C(=O)O)cc1)C(C)(C)C` [68/natGa-19F-rhPSMA-10, metal not drawn], the tissue uptake at 1 h is 2.2 ± 0.3 %ID/g in data set [5] (Adrenals); 1.5 ± 0.3 %ID/g in data set [5] (Blood); 0.35 ± 0.13 %ID/g in data set [5] (Bone); 0.75 ± 0.13 %ID/g in data set [5] (Heart); 0.47 ± 0.21 %ID/g in data set [5] (Intestine); 77.5 ± 13.6 %ID/g in data set [5] (Kidneys). The tissue uptake at 1 h in data set [5] (Liver) was 0.7 ± 0.2 %ID/g; in data set [5] (Lung) it was 1.3 ± 0.2 %ID/g; in data set [5] (Muscle), 0.33 ± 0.1 %ID/g; in data set [5] (Pancreas), 0.51 ± 0.03 %ID/g; in data set [5] (Spleen) it was 9.4 ± 1.6 %ID/g; in data set [5] (Stomach), 0.42 ± 0.12 %ID/g. Besides, the tissue uptake at 1 h in data set [5] (Tumor) was 11.7 ± 1.9 %ID/g. The same compound registered an IC50 on PSMA of 3.8 ± 0.3 nM.
